According to publication PMC4622054:
Read-outs that look alike come from different tables or passages of the source.

Columns and labels:
[1] = biological target: Human FcRn (hFcRn), soluble α-chain/β2m heterodimer (human) (UniProt P55899); test: BLI; hFcRn-loaded surface; human IgG1 as analyte, association at pH 6.0 and dissociation at pH 6.0
[2] = biological target: Human FcRn (hFcRn), soluble α-chain/β2m heterodimer (human) (UniProt P55899); test: BLI
[3] = biological target: Human FcRn (hFcRn), soluble α-chain/β2m heterodimer (human) (UniProt P55899); test: BLI; remark: listed apart in the source
[4] = biological target: Human FcRn (hFcRn), soluble α-chain/β2m heterodimer, P55899;P61769; test: BLI (in vitro BLI-based FcRn platform); conditions: parent: est. 270; read off a plot
[5] = biological target: CDA1 (actoxumab), human IgG1 monoclonal antibody (UniProt P01857); test: biolayer interferometry (Octet QK, ForteBio); conditions: 30°C, PBS (composition and salt concentration not stated), PBS adjusted to pH 6.0 with HCl for the acidic steps, PBS pH 7.5 for the physiological-pH steps

Human FcRn (hFcRn), soluble α-chain/β2m heterodimer (human), sequence (P55899 34-290, chain 1 of 2): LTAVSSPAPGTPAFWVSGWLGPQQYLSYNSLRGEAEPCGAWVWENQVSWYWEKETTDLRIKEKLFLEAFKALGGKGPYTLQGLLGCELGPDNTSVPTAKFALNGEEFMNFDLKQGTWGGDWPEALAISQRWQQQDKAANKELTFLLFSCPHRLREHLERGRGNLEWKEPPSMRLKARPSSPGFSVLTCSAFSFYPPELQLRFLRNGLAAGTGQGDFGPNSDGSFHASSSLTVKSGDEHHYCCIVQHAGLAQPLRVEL
Human FcRn (hFcRn), soluble α-chain/β2m heterodimer (human), sequence (P61769 21-119, chain 2 of 2, further chain): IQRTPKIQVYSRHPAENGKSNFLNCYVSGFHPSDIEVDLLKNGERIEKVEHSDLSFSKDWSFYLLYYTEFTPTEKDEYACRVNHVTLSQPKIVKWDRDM

Which fold slower off-rate at pH 6.0 than at pH 7.5 [1] does the source give for “CDA1 (actoxumab), fully human IgG1 mAb (antibody)” here?
Its fold slower off-rate at pH 6.0 than at pH 7.5 is 5 fold.

What about the fold change FcRn binding rate [2] of the same substance?
Its fold change FcRn binding rate is 1.14 fold.

And the fold change of the association rate against RAB1 [2]?
Its fold change of the association rate against RAB1 is 1.09 fold.

And the fold change of the dissociation rate against CDB1 [2]?
The fold change of the dissociation rate against CDB1 was 1.18 fold.

What about the koff [2] of the same substance?
Its koff is 0.0906 s⁻¹.

What about the koff [3] of the same substance?
Its koff is 0.101 s⁻¹.

Which other: Predicted Human t1/2, β [4] does the source give for “HCV1, fully human IgG1 mAb HCV (with CDA VH CDRs and CDB Vk CDRs): VH CDR1-3 of HCV1 replaced by VH CDRs of CDA1; Vk CDR1-3 of HCV1 replaced by Vk CDRs of CDB1; residues not printed” here?
The other: Predicted Human t1/2, β was 27.1 days.

How did the “average association rate (apparent kon)” value ([5]; pH 6.0) turn out when “soluble human neonatal Fc receptor (hFcRn; alpha-chain/beta2-microglobulin heterodimer)” was run?
The value was 0.2087 ± 0.0036 s⁻¹.

And the “kon (apparent association rate)” value ([5]; pH 6.0)?
The value was 0.110 s⁻¹.

And the “average dissociation rate (koff)” value ([5]; pH 7.5)?
Its value is 0.0906 ± 0.0034 s⁻¹.

And the koff ([5]; pH 7.5)?
The koff was 0.101 s⁻¹.
